From patent CN117062835A (ONCORIS PONS, dated 2023)
Each block holds one binder with its values, some of them ahead of it.

Assays:
人类CD163蛋白(生物素化) = molecular target: T1, 人类CD163蛋白(生物素化) (human, UniProt Q86VB7 46-1050, limits assumed, biotinylated (sites not given)); experiment: BLI, b-huCD163 on SA biosensor, four antibody concentrations
T1 construct: also called b-huCD163; 生物素标记的人类CD163

加His标签的重组人类CD163(R&D …) [1] = molecular target: T2, 加His标签的重组人类CD163(R&D Systems，编号1607-CD-050)蛋白 (human, UniProt Q86VB7 46-1050); experiment: ELISA EC50 ratio; lower end of the range, tied to V4 through the highest EC50 of Table 7
T2 construct: Bought recombinant protein coated on ELISA plates; also called 重组CD163蛋白; huCD163; not shown: His tag
T2 sequence (Q86VB7 46-1050 limits assumed): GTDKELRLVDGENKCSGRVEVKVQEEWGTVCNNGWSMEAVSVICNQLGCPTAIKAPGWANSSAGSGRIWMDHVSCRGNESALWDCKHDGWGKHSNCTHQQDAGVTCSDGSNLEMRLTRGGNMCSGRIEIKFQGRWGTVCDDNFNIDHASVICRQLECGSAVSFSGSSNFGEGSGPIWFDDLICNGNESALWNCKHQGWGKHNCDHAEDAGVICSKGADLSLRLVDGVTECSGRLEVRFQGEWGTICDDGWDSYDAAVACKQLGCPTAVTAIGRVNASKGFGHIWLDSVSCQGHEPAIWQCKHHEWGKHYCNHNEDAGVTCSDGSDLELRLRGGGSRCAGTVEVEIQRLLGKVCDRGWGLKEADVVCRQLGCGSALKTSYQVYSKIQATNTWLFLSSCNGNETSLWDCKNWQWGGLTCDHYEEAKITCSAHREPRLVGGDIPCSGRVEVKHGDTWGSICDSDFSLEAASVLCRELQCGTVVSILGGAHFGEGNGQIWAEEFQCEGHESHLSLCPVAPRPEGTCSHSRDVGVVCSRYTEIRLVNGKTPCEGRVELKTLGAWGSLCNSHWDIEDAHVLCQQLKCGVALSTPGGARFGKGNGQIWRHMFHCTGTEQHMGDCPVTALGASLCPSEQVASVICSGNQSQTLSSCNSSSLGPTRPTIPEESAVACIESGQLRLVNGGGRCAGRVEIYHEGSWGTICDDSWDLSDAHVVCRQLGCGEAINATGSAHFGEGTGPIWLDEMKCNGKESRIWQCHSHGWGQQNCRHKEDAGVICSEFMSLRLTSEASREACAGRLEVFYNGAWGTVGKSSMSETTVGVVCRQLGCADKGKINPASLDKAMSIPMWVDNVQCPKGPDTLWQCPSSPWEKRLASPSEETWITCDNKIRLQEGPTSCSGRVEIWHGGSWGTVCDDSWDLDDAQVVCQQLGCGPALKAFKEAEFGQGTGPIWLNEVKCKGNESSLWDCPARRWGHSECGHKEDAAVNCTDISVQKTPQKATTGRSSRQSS

加His标签的重组人类CD163(R&D …) [2] = molecular target: T2, 加His标签的重组人类CD163(R&D …); experiment: ELISA EC50 ratio; upper end of the range, tied to V1 through the lowest EC50 of Table 7

T1 sequence (Q86VB7 46-1050 limits assumed): as above

- fold increase of affinity against AB101 parental Ab (人类CD163蛋白(生物素化)): ~3760 fold
- fold stronger binding than AB101 parental antibody (加His标签的重组人类CD163(R&D …) [1]): 27 fold
B1: 变体4(V4) (antibody, V domains shown)
VH: EVQLVESGGGVVQPGRSLRLSCAASGFTFSSYVMHWVRQAPGKGLEWVAVISEDGSNKYNADSVKGRFTISRDNSKNTLYLQMNSLRAEDTAVYYCARENVRPYYDFWSGYSSEYYYYGLDVWGQGTTVTVSS
VL: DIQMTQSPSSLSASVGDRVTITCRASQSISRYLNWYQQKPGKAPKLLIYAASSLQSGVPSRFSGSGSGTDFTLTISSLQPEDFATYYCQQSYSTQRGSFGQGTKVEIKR
notes: also called 克隆4

- fold stronger binding than AB101 parental antibody (加His标签的重组人类CD163(R&D …) [2]): 45 fold
B2: 变体1(V1) (antibody, V domains shown)
VH: EVQLVESGGGVVQPGRSLRLSCAASGFTFSSYDMHWVRQAPGKGLEWVAVISEDGSNKYNADSVKGRFTISRDNSKNTLYLQMNSLRAEDTAVYYCARENVRPYYDFWSGYSSEYYYYGLDVWGQGTTVTVS
VL: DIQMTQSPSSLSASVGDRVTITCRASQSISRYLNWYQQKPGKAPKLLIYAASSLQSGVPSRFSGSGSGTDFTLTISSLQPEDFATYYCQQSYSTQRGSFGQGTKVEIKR
